Patent publication US20220249685A1, “ANTI-MESOTHELIN ANTIBODIES AND IMMUNOCONJUGATES THEREOF” (Silverback Therapeutics, Inc., priority 2019, published 2022)

Columns and labels:
[1] = tested on: huPBMCs in the presence of HEK-293 cells transfected with human MSLN; test: TNFα production by huPBMCs with HEK-293 cells transfected with human MSLN; type: cell-based; conditions: overnight, AlphaLISA
Experimental: Human Whole Blood was obtained from Bloodworks Northwest and collected in 10mL EDTA tubes. Human PBMCs were then isolated from the whole blood by Ficoll gradient centrifugation and resuspended in assay media (RPMI-1640 Medium supplemented with 10% Fetal Bovine Serum, 1 mM Sodium Pyruvate, 1× GlutaMAX-1, 1× Non-Essential Amino Acids, 10mM HEPES and 0.5% Penicillin/Streptomycin; all from Gibco). Tumor cells were removed from tissue culture flasks with HyQTASE (Hyclone), washed twice and resuspended in assay media.
Human PBMCs isolated as described above were resuspended in assay media, and plated in 96-well flat bottom microtiter plates (125,000/well). MSLN-expressing HEK-293cells were then added (25,000/well) along with titrating concentrations of conjugated or unconjugated antibodies. Mock transfected HEK-293 cells were used as a negative control. After overnight culture, supernatants were harvested, and TNFα levels were determined by AlphaLISA.

[2] = Analytical hydrophobic interaction chromatography (HIC) profile, incl. after 40° C. stress; type: physicochemical; conditions: TSKgel Butyl-NPR, ammonium sulfate
[3] = Tm of purified antibodies (Table 1); type: physicochemical; conditions: purified antibody
Experimental: Six humanized heavy chains were co-transfected with 5 humanized light chains into the ExpiCHO expression system in a 30mL culture. The supernatant was analyzed via Octet to determine off rates and any that retained binding and contained less mouse sequence, were purified and further characterized. Clones 6 and 37 were selected for further optimization. An additional mutation in CDRH2, G55A, was introduced to reduce chemical modification of the neighboring Asparagine (N) residue. These humanized sequences are represented in SEQ ID NOs. 1-15.

With “SS1: chimeric monoclonal anti-mesothelin antibody IgG/K; VH SEQ ID NO: 25, VL SEQ ID NO: 26” the “TNFα production from huPBMCs” value [1] was “did not stimulate TNFα production”, the “profile on an analytical HIC column” value [2] was “multiple variant species” and the “Tm ° C.” value [3] was 69 °C.
